T1: sortilin (human, UniProt Q99523)
T1 construct: soluble, 6his-tagged; Injected at 25-250 nM over immobilized progranulin-6his as a comparison with SorCS2; also called hSortilin-6his; soluble human sortilin
T1 sequence (receptor, soluble form, looked up): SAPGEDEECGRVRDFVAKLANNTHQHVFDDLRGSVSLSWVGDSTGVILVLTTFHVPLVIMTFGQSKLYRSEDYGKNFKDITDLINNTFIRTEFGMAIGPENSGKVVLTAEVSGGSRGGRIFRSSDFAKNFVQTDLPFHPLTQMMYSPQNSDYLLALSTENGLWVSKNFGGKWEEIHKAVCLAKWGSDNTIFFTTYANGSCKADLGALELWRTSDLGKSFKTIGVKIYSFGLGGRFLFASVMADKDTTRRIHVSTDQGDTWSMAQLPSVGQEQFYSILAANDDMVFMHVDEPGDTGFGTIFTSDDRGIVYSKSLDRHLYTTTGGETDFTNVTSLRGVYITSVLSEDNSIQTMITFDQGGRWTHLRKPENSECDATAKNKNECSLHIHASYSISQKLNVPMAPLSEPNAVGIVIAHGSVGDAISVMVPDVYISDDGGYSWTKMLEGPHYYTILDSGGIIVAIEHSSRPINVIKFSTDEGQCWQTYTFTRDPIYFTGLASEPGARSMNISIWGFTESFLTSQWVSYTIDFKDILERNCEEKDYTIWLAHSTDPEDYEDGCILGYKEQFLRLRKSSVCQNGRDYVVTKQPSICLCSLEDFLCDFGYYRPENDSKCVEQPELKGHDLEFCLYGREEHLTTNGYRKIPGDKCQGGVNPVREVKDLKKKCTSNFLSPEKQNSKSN

B1: tetrapeptide RQLL (peptide)
peptide: RQLL
notes: also called RQLL peptide; PGRN-derived tetra peptide
B2: Granulin E (ligand, UniProt P28799 518-593, looked up)
chain: DVECGEGHFCHDNQTCCRDNRQGWACCPYRQGVCCADRRHCCPAGFRCAARGTKCLRREAPRWDAPLRDPALRQLL
notes: domain: Granulin E; also called GrnE
B3: hPGRN-6his (human progranulin with a C-terminal 6his-tag) (ligand)
chain: TRCPDGQFCPVACCLDPGGASYSCCRPLLDKWPTTLSRHLGGPCQVDAHCSAGHSCIFTVSGTSSCCPFPEAVACGDGHHCCPRGFHCSADGRSCFQRSGNNSVGAIQCPDSQFECPDFSTCCVMVDGSWGCCPMPQASCCEDRVHCCPHGAFCDLVHTRCITPTGTHPLAKKLPAQRTNRAVALSSSVMCPDARSRCPDGSTCCELPSGKYGCCPMPNATCCSDHLHCCPQDTVCDLIQSKCLSKENATTDLLTKLPAHTVGDVKCDMEVSCPDGYTCCRLQSGAWGCCPFTQAVCCEDHIHCCPAGFTCDTQKGTCEQGPHQVPWMEKAPAHLSLPDPQALKRDVPCDNVSSCPSSDTCCQLTSGEWGCCPIPEAVCCSDHQHCCPQGYTCVAEGQCQRGSEIVAGLEKMPARRASLSHPRDIGCDQHTSCPVGQTCCPSLGGSWACCQLPHAVCCEDRQHCCPAGYTCNVKARSCEKEVVSAQPATFLARSPHVGVKDVECGEGHFCHDNQTCCRDNRQGWACCPYRQGVCCADRRHCCPAGFRCAARGTKCLRREAPRWDAPLRDPALRQLLHHHHHH
notes: Purified protein; also called progranulin-6his; human progranulin-6his

How the values were obtained:
[1] = molecular target: B3; experiment: SPR, RQLL peptide alone injected over immobilized C-terminal his-tagged progranulin on a CM5 chip (control trace of the competition experiment)
Description: (§1) Purified hPGRN-6his or hSorCS2-6his was immobilized on a CM5 sensor chip using standard amine-coupling. All sensograms were collected in PBS+0.05% Tween20 following injection of purified hPGRN-6his over immobilized hSorCS2-6his or hSortilin-6his and hSorCS2-6his with/without PGRN derived peptide over immobilized hPGRN-6his. Following this experimental setup we estimated the dissociation constant of the hSorCS2:hPGRN interaction to be 15 nM (FIG. 4). […] Inhibition experiments was performed using 100 nM hSorCS2 preincubated with 100 uM PGRN-derived tetra peptide and injected over immobilized hPGRN-6his (FIG. 7).

[2] = molecular target: T2, hSorCS2-6his (extracellular domain of human SorCS2 with a C-terminal 6His-tag) (human, UniProt Q96PQ0 51-1076); experiment: microscale thermophoresis, 25 nM labelled hSorCS2-6his, partner titrated, triplicates
T2 construct: Made in CHO-K1 cells and purified from the medium; For crystallisation the protein was deglycosylated with PNGaseF; also called soluble human SorCS2; hSorCS2 extracellular domain
T2 sequence (Q96PQ0 other isoform, or with tags, fused parts or gaps): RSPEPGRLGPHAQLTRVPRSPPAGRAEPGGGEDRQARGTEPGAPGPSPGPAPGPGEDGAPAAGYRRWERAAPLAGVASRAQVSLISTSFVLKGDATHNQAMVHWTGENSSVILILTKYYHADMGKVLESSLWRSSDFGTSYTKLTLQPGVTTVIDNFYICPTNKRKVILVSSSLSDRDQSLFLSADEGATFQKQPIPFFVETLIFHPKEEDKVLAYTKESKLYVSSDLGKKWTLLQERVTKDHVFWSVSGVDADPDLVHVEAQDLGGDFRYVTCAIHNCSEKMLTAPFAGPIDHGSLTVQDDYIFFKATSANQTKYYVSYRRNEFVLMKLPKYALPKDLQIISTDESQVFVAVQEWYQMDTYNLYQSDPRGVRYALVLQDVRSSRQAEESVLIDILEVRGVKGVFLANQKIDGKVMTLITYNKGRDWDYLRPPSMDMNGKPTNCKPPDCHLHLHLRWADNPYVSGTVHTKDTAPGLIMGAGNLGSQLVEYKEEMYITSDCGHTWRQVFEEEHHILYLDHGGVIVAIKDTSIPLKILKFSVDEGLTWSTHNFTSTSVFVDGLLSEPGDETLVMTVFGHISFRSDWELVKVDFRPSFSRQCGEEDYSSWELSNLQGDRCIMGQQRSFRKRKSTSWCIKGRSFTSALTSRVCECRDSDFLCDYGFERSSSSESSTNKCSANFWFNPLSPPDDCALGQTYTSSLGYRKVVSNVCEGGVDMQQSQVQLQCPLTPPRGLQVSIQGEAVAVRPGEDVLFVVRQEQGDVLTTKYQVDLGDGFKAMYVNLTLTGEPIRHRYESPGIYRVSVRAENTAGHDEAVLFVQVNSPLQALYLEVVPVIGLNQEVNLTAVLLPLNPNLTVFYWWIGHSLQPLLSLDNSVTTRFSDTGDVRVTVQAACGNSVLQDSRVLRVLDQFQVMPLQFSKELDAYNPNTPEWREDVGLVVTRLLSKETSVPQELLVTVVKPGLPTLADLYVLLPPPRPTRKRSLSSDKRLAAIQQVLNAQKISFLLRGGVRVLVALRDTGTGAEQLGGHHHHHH
Description: Equilibrium-binding affinities between hSorCS2 and hPGRN-6his, GrnE and RQLL peptide were assessed by MST. Purified hSorCS2-6his was labelled using the MO-003 monolith blue-NHS labelling kit according to manufactures recommendation. hSorCS2 was applied at a final concentration of 25 nM while the unlabelled binding partner was titrated in 1:1 dilutions (PBS+0.05% Tween20). MST measurements were performed in standard treated capilaiers on a monolith NT.115 instrument. For each binding partner the sigmoid-dose response curve was fitted with GraphPad prism 6 to yield an average dissociation constant.

[3] = molecular target: T2, hSorCS2-6his (extracellular domain of …); experiment: SPR, hSorCS2-6his injected over hPGRN-6his immobilized on a CM5 chip
Description: as §1

[4] = molecular target: T2, hSorCS2-6his (extracellular domain of …); experiment: SPR, hPGRN-6his injected over hSorCS2-6his immobilized on a CM5 chip
Description: as §1

[5] = molecular target: T1, sortilin; experiment: SPR, soluble human sortilin injected over immobilized C-terminal his-tagged progranulin on a CM5 chip
Description: as §1

binding result [1] | Kd [2] [nM] | Kd [3] [nM] | Kd [4] [nM] | binding result [5] | Binder
no binding (tested: 100 uM) | 1000 |  |  |  | B1
 | 2000 |  |  |  | B2
 | 47.8 | 7.4 | 15 | no binding (tested: 250 nM) | B3

Reference: US20220259283A1 (AARHUS UNIVERSITET, published 2022)
